Data from publication PMC5683673.

Biological target: purified recombinant human dimeric DPP-4 protein (dipeptidyl peptidase-4) (human), P27487
Assay: SEC
Conditions: remark: other sources report otherwise

B1: purified recombinant human dimeric DPP-4 protein (dipeptidyl peptidase-4), P27487 29-766 (enzyme)
chain: NKGTDDATADSRKTYTLTDYLKNTYRLKLYSLRWISDHEYLYKQENNILVFNAEYGNSSVFLENSTFDEFGHSINDYSISPDGQFILLEYNYVKQWRHSYTASYDIYDLNKRQLITEERIPNNTQWVTWSPVGHKLAYVWNNDIYVKIEPNLPSYRITWTGKEDIIYNGITDWVYEEEVFSAYSALWWSPNGTFLAYAQFNDTEVPLIEYSFYSDESLQYPKTVRVPYPKAGAVNPTVKFFVVNTDSLSSVTNATSIQITAPASMLIGDHYLCDVTWATQERISLQWLRRIQNYSVMDICDYDESSGRWNCLVARQHIEMSTTGWVGRFRPSEPHFTLDGNSFYKIISNEEGYRHICYFQIDKKDCTFITKGTWEVIGIEALTSDYLYYISNEYKGMPGGRNLYKIQLSDYTKVTCLSCELNPERCQYYSVSFSKEAKYYQLRCSGPGLPLYTLHSSVNDKGLRVLEDNSALDKMLQNVQMPSKKLDFIILNETKFWYQMILPPHFDKSKKYPLLLDVYAGPCSQKADTVFRLNWATYLASTENIIVASFDGRGSGYQGDKIMHAINRRLGTFEVEDQIEAARQFSKMGFVDNKRIAIWGWSYGGYVTSMVLGSGSGVFKCGIAVAPVSRWEYYDSVYTERYMGLPTPEDNLDHYRNSTVMSRAENFKQVEYLLIHGTADDNVHFQQSAQISKALVDVGVDFQAMWYTDEDHGIASSTAHQHIYTHMSHFIKQCFSLP
Question: For B1, which percent present as dimer is on record?
Answer: 85%
